Data set [1] relates to biotinyl-Trp-oxazolone. Put plainly: self-aminoacylation, catalytic enhancement (BWO) (fold over background); higher = more active; k-Seq, kA / k0A0; sequences stand for … in GGGAAUGGAUCCACAUCUACGAAUUC…UUCACUGCAGACUUGACGAAGCUG
The method, boiled down:
(§1)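 Mutagenized RNA pools (0.43 μM; 21-nt variable region) were treated with 2–1250 μM of each biotinyl-aminoacyl-oxazolone. Conditions were 50 μL HEPES/NaCl/KCl/MgCl2/CaCl2 buffer, 5% acetonitrile, pH 6.9–7.0, room temperature, 90 minutes. Catalytic enhancement, the median kA relative to the uncatalyzed rate, was derived from streptavidin capture, qPCR and Illumina sequencing.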

Data set [2] deals with biotinyl-Ile-oxazolone. Put plainly: self-aminoacylation, catalytic enhancement (BIO) (fold over background); higher = more active; k-Seq, kA / k0A0; sequences stand for … in GGGAAUGGAUCCACAUCUACGAAUUC…UUCACUGCAGACUUGACGAAGCUG
The method, boiled down: as §1

Data set [3] deals with biotinyl-Leu-oxazolone. Put plainly: self-aminoacylation, catalytic enhancement (BLO) (fold over background); higher = more active; k-Seq, kA / k0A0; sequences stand for … in GGGAAUGGAUCCACAUCUACGAAUUC…UUCACUGCAGACUUGACGAAGCUG
The method, boiled down:
as §1

Data set [4] has as its system biotinyl-Val-oxazolone. Put plainly: self-aminoacylation, catalytic enhancement (BVO) (fold over background); higher = more active; k-Seq, kA / k0A0; sequences stand for … in GGGAAUGGAUCCACAUCUACGAAUUC…UUCACUGCAGACUUGACGAAGCUG
Put shortly:
as §1

For data set [5], the system named is biotinyl-Met-oxazolone. Put plainly: self-aminoacylation, catalytic enhancement (BMO) (fold over background); higher = more active; k-Seq, kA / k0A0; sequences stand for … in GGGAAUGGAUCCACAUCUACGAAUUC…UUCACUGCAGACUUGACGAAGCUG
Put shortly: as §1

The subject of data set [6] is biotinyl-Phe-oxazolone. Put plainly: self-aminoacylation, catalytic enhancement (BFO) (fold over background); higher = more active; k-Seq, kA / k0A0; sequences stand for … in GGGAAUGGAUCCACAUCUACGAAUUC…UUCACUGCAGACUUGACGAAGCUG
The method, boiled down: as §1

Drawing on the supplement of paper PMC9233669, this text covers self-aminoacylation for 21 sequences.

This sample holds only a part of the variants without activity.

As for “CCACACUUGAAGGAAUCGGUC [Fam1B.1 aminoacylation ribozyme variant]”, the self-aminoacylation in data set [1] worked out at 1.71; in data set [2], 1.28; in data set [3], 1.55; in data set [4] it was 1.39; in data set [5] it was 1.39; in data set [6], 1.23.

On to “CCACACUUUAAGAAAUCGGUC [Fam1B.1 aminoacylation ribozyme variant]”, for which the self-aminoacylation in data set [1] came to 0.727; in data set [2], 0.841; in data set [3], 0.782; in data set [4] it was 0.663; in data set [5], 0.607; in data set [6] it was 0.835.

“CCACACUUUAAGCAAUCGCUC [Fam1B.1 aminoacylation ribozyme variant]”: the self-aminoacylation in data set [1] turned out to be 1.2; in data set [2], 0.99; in data set [3], 0.897; in data set [4], 1.08; in data set [5] it was 1.1; in data set [6] it was 0.598.

Regarding “CCACACUUUAAGCAAUCGGAC [Fam1B.1 aminoacylation ribozyme variant]”, the self-aminoacylation in data set [1] came to 0.544; in data set [2], 0.85; in data set [3], 0.737; in data set [4] it was 0.839; in data set [5], 0.664; in data set [6], 0.866.

As to “CCACACUUUAAGCAAUCGGGC [Fam1B.1 aminoacylation ribozyme variant]”, the self-aminoacylation came to 1.01 in data set [1]; 1.61 in data set [2]; 1.65 in data set [3]; 1.34 in data set [4]; 1.63 in data set [5]; 1.22 in data set [6].

With “CCACACUUUAAGCAAUGGGUC [Fam1B.1 aminoacylation ribozyme variant]”, the self-aminoacylation in data set [1] was determined as 0.612; in data set [2], 0.696; in data set [3], 0.618; in data set [4] it was 0.613; in data set [5] it was 0.686; in data set [6], 0.774.

For “CCACACUUUAAGCAUUCGGUC [Fam1B.1 aminoacylation ribozyme variant]”, the self-aminoacylation in data set [1] was 1.36; in data set [2] it was 1.39; in data set [3], 1.21; in data set [4], 1.3; in data set [5], 1.01; in data set [6], 1.05.

With “CCACACUUUCAGCAAUCGGUC [Fam1B.1 aminoacylation ribozyme variant]”, the self-aminoacylation in data set [1] worked out at 0.664; in data set [2], 1.01; in data set [3] it was 0.966; in data set [4], 1.09; in data set [5] it was 0.799; in data set [6], 1.04.

Turning to “CCACAGUUCAAGAAAUCGGUC [Fam1B.1 aminoacylation ribozyme variant]”, the self-aminoacylation in data set [1] came to 1.67; in data set [2], 1.06; in data set [3] it was 1.22; in data set [4], 1.18; in data set [5], 1.22; in data set [6], 1.71.

Turning to “CCACAGUUCAAGCAAUAGGUC [Fam1B.1 aminoacylation ribozyme variant]”, the self-aminoacylation was 0.858 in data set [1]; 0.794 in data set [2]; 0.731 in data set [3]; 0.862 in data set [4]; 0.783 in data set [5]; 1.14 in data set [6].

“CCACAGUUCAAGCAAUCAGUC [Fam1B.1 aminoacylation ribozyme variant]”: the self-aminoacylation in data set [1] is 0.814; in data set [2] it was 0.829; in data set [3], 0.76; in data set [4] it was 0.781; in data set [5] it was 0.662; in data set [6], 1.73.

Turning to “CCACAGUUCAAGCAAUCGGUG [Fam1B.1 aminoacylation ribozyme variant]”, the self-aminoacylation turned out to be 3.62 in data set [1]; 3.29 in data set [2]; 5.44 in data set [3]; 3.14 in data set [4]; 4.04 in data set [5]; 25.9 in data set [6].

For “CCACAGUUCAAGCCAUCGGUC [Fam1B.1 aminoacylation ribozyme variant]”, the self-aminoacylation in data set [1] turned out to be 1.3; in data set [2], 1.87; in data set [3] it was 2.53; in data set [4], 2.17; in data set [5], 2.33; in data set [6], 1.14.

In the case of “CCACAGUUCAAUCAAUCGGUC [Fam1B.1 aminoacylation ribozyme variant]”, the self-aminoacylation was found to be 2.08 in data set [1]; 0.806 in data set [2]; 0.881 in data set [3]; 0.96 in data set [4]; 0.905 in data set [5]; 2.95 in data set [6].

Take “CCACAUUUCAAACAAUCGGUC [Fam1B.1 aminoacylation ribozyme variant]”: the self-aminoacylation in data set [1] was 9.95; in data set [2] it was 1.41; in data set [3], 1.31; in data set [4] it was 1.28; in data set [5], 1.33; in data set [6], 17.8.

Consider “CCACAUUUCAAGCAAUCAGUC [Fam1B.1 aminoacylation ribozyme variant]”, for which the self-aminoacylation in data set [1] came to 0.884; in data set [2], 1; in data set [3], 0.906; in data set [4], 1.1; in data set [5] it was 0.755; in data set [6], 1.71.

As for “CCACAUUUCAAGCAAUCGCUC [Fam1B.1 aminoacylation ribozyme variant]”, the self-aminoacylation in data set [1] turned out to be 2.38; in data set [2] it was 2.6; in data set [3] it was 2.17; in data set [4], 2.42; in data set [5], 2; in data set [6], 2.39.

With “CCACAUUUCAAGCACUCGGUC [Fam1B.1 aminoacylation ribozyme variant]”, the self-aminoacylation in data set [1] is 0.97; in data set [2], 1.25; in data set [3], 1.16; in data set [4], 1.37; in data set [5], 1.15; in data set [6], 0.933.

Consider “CCACAUUUCAAGCAUUCGGUC [Fam1B.1 aminoacylation ribozyme variant]”, for which the self-aminoacylation in data set [1] stood at 1.56; in data set [2], 1.92; in data set [3] it was 1.64; in data set [4], 1.96; in data set [5], 1.65; in data set [6] it was 1.3.

As for “CCACAUUUCAAGGAAUCGGUC [Fam1B.1 aminoacylation ribozyme variant]”, the self-aminoacylation in data set [1] turned out to be 1.28; in data set [2], 1.52; in data set [3], 1.49; in data set [4], 1.31; in data set [5] it was 1.34; in data set [6], 1.67.

Take “CCACCCUUCAACCAAUCGGUC [Fam1B.1 aminoacylation ribozyme variant]”: the self-aminoacylation in data set [1] came to 26.2; in data set [2], 1.19; in data set [3], 1.44; in data set [4] it was 1.47; in data set [5], 1.35; in data set [6], 46.
